According to patent publication EP4722243A1 (Beijing Dongfang Biotech Co. Ltd., dated 2026):
Substitutions are numbered along the chain they refer to.

What was measured:
rat IL-11 = target: T1, rat IL-11 (rat, UniProt Q99MF5 22-199, limits assumed); experiment: ELISA, rat IL-11 coated, goat anti-human IgG Fab HRP detection
T1 construct: Bought reagent; also called IL-11 (Rat)
T1 sequence (looked up): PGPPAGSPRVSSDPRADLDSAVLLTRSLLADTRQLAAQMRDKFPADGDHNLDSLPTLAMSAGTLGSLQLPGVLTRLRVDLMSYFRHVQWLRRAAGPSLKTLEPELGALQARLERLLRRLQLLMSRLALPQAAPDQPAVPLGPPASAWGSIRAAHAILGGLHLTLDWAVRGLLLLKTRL

human IL-11 [1] = target: T2, human IL-11 (human, UniProt P20809 22-199, limits assumed); experiment: cell-based or functional assay
T2 sequence (looked up): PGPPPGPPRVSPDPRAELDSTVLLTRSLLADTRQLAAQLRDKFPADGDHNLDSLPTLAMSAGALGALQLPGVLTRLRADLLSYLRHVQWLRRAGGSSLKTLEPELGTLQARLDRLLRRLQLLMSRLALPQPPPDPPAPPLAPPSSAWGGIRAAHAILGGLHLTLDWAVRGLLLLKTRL

human IL-11 [2] = target: T2, human IL-11; experiment: ELISA, IL-11 coated, goat anti-human IgG Fab HRP detection
mouse IL-11 = target: T3, mouse IL-11 (mouse, UniProt P47873 22-199, limits assumed); experiment: ELISA, mouse IL-11 coated, goat anti-human IgG Fab HRP detection
T3 construct: Bought reagent; also called IL-11 (Mouse)
T3 sequence (looked up): T1 sequence (looked up) with N50S, F84L, A94G, A137V, V138I

cynomolgus monkey IL-11 = target: T4, cynomolgus monkey IL-11 (cynomolgus monkey, UniProt P20808 22-199, limits assumed); experiment: ELISA, cynomolgus monkey IL-11 coated, goat anti-human IgG Fab HRP detection
T4 construct: Bought reagent; also called IL-11 (Cynomolgus)
T4 sequence (looked up): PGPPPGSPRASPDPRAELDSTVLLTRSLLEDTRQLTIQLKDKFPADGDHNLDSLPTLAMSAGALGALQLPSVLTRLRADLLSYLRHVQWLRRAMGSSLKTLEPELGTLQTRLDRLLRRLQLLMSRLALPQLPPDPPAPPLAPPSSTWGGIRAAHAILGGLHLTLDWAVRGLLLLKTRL

IL-11-mFc ligand protein [3] = target: T5, IL-11-mFc ligand protein (human, UniProt P20809 22-199); experiment: cell-based or functional assay
T5 sequence (looked up): T2 sequence (looked up)

IL-11-mFc ligand protein [4] = target: T5, IL-11-mFc ligand protein; experiment: flow cytometry: inhibition of IL-11-mFc binding to GP130 on BaF/3-GP130 cells, goat anti-mouse IgG-FITC detection
IL-11-mFc ligand protein [5] = target: T5, IL-11-mFc ligand protein; experiment: flow cytometry: inhibition of IL-11-mFc binding to IL-11RA on BaF/3-IL-11RA cells, goat anti-mouse IgG-FITC detection
human IL-11 [6] = target: T2, human IL-11; experiment: ELISA, human IL-11 coated, goat anti-human IgG Fab HRP detection

B1: humanized antibody molecule HA-I-A (antibody, human IgG1, kappa, L234A L235A, V domains shown)
VH: QVQLVESGGGLVKPGGSLRLSCAASGFTFSDYYMFWVRQAPGKGLEWVATISDGGTYTYYPDSVKGRFTISRDNAKNSLYLQMNSLRAEDTAVYYCARDGGYVSSPEAMDYWGQGTLVTVSS
VL: DIVLTQSPSSLSASVGDRVTITCRASQDISNYLNWYQQKPGKAPKLLIYYTSRLHSGVPSRFSGSGSGTDFTFTISSLQPEDIATYYCQQGNTLPPTFGGGTKVEIKR
notes: anti-IL-11 monoclonal antibody HA-I-A
B1 was tested, and the EC50 (rat IL-11) was 0.0179 µg/mL, the “IC50, reporter gene (BaF/3-GP130-STAT3-Luc cells stimulated with IL-11 protein, luciferase)” value (human IL-11 [1]) was 0.045 µg/mL and the EC50 (human IL-11 [2]) was 0.0204 µg/mL. For the same binder, the EC50 (mouse IL-11) was 0.0139 µg/mL, the EC50 (cynomolgus monkey IL-11) was 0.239 µg/mL and the “IC50 of inhibition of TIMP-1 secretion by MRC-5 cells stimulated with IL-11-mFc” value (IL-11-mFc ligand protein [3]) was 0.101 µg/mL. The IC50 (IL-11-mFc ligand protein [4]) was 23.5 µg/mL, the IC50 (IL-11-mFc ligand protein [5]) was 1.68 µg/mL and the EC50 (human IL-11 [6]) was 0.0106 µg/mL.
